Laboratory results from paper PMC5805342.

target: Plasminogen (human)

| KM for plasminogen activation (indirect chromogenic assay with S-2251; plasminogen 24-0 μM, 1 nM muPA, 37°C) [µM] | kcat for plasminogen activation (indirect chromogenic assay with S-2251; plasminogen 24-0 μM, 1 nM muPA, 37°C) [s⁻¹] | Substance |
| --- | --- | --- |
| 3.1 |  | Full-length muPA K72A (enzyme) |
| 22 |  | Full-length muPA S74A (enzyme) |
| 9.8 |  | Full-length murine urokinase-type plasminogen activator (muPA) (from UniProt P06869 21-433) (enzyme) |
| 5 |  | Full-length muPA Y76A (enzyme) |

Further lines, the substance ahead of its results:

| Substance | KM for plasminogen activation (indirect chromogenic assay with S-2251; plasminogen 24-0 μM, 1 nM muPA, 37°C) [µM] | kcat for plasminogen activation (indirect chromogenic assay with S-2251; plasminogen 24-0 μM, 1 nM muPA, 37°C) [s⁻¹] |
| --- | --- | --- |
| Full-length muPA P78A (enzyme) | 3.9 |  |
| Full-length muPA N77A (enzyme) | 5.1 |  |
| Full-length muPA E73A (enzyme) | 24.6 |  |
| Full-length muPA Y149A (enzyme) | 12 | 0.06 |
